From US20220340657A1 (L AND L BIO CO LTD NINGBO CHINA, published 2022)
Where “and” joins values, the source holds several entries; their conditions need not be identical. Identical values can stand only once.

T1: bio-LAG3-mFc (human, UniProt P18627 23-450, biotin-labelled)
T1 construct: also called hLAG-3
T1 sequence (looked up): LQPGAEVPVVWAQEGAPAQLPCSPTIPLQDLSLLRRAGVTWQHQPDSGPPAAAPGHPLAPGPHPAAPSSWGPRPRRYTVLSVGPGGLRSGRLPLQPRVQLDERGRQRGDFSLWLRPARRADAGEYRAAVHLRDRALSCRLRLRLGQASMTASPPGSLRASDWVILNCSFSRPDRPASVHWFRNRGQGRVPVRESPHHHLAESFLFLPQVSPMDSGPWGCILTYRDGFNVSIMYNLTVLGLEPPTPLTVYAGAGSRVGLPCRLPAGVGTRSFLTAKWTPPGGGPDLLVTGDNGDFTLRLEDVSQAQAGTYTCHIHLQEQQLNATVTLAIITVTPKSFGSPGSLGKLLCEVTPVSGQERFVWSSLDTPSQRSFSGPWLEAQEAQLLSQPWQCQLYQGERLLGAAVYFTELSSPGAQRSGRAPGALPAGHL

T2: human LAG-3-his (human, UniProt P18627 23-422)
T2 construct: range 23-422; also called hLAG-3-his; hLAG-3
T2 sequence: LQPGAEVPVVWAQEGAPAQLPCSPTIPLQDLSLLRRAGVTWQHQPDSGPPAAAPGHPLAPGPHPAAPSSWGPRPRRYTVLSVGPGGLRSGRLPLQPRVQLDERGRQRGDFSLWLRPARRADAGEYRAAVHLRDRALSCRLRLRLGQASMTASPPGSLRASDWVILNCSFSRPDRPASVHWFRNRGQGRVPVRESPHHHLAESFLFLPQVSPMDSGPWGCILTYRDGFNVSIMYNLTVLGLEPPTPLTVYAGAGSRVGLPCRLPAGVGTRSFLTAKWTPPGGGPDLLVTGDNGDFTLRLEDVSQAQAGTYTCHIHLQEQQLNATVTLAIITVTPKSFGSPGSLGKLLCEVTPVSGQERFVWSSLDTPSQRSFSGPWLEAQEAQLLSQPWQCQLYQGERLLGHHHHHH

T3: human LAG-3 on CHO-K1 cells (hLAG-3+ cells) (human, UniProt P18627 23-525)
T3 construct: whole, on cells; Cells fixed in the cell ELISA; also called CHO-K1hLAG-3+ cell strain
T3 sequence (looked up): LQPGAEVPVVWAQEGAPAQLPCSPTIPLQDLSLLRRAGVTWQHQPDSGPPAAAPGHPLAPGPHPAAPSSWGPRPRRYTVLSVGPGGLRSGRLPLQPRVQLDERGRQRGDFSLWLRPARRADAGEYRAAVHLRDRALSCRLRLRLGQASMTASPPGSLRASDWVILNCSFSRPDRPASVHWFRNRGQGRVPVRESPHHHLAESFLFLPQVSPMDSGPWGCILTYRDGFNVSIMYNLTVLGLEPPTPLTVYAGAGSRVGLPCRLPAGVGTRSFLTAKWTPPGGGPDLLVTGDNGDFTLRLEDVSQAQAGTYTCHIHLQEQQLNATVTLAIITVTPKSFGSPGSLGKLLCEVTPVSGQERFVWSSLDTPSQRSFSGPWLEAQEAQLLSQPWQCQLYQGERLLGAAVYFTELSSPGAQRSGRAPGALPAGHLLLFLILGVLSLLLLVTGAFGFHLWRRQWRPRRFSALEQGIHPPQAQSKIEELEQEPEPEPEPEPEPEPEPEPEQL


How the values were obtained:
[1] = molecular target: T4, cyno-LAG3-hFc (cynomolgus monkey); experiment: ELISA
T4 construct: Bought product; also called cynomolgus monkey LAG-3

[2] = molecular target: T1, bio-LAG3-mFc; experiment: blocking ELISA, LAG-3 on Daudi cells
[3] = molecular target: T1, bio-LAG3-mFc; experiment: blocking of LAG3 binding to Daudi cells, same experiment
Protocol: The Daudi cell line (ATCC, CCL-213) was expanded and seeded into 96-well microplate at a density of 2×10⁵ cells/well, and then centrifuged at 1600 rpm for 10 min; thereafter the cells were fixed with 100 μl/well of a fixative solution for immunostaining (Shanghai Beyotime Biotechnology Co., Ltd., Cat. No.: P0098) for half an hour at room temperature. After washing with PBS (BasalMedia Biology, Cat. No.: B320) once, 5% milk was added with 230 μl per well, and the microplate was incubated for 2 hours at 37° C. for blocking, then was washed three times with PBST. […] The microplate was then incubated for 1 hour at 37° C. and washed 5 times with PBST. 50 μl/well of 1:1000 diluted streptavidin-HRP secondary antibody (GenScript, Cat. No.: M00091) was added to the microplate and incubated for 1 hour at 37° C. After washing the microplate 5 times with PBST, 50 μl/well TMB (Surmodic, Cat. No.: TTMB-1000-01) was added to the microplate for color development, and 50 μl/well 1M H₂SO₄ was added to stop the reaction. The microplate was then read by a microplate reader (MuitiskanGo Thermo, model 511919200), and the data were analyzed using GraphPad prism 5.

[4] = molecular target: T2, human LAG-3-his; experiment: ELISA on human LAG-3, same experiment
[5] = molecular target: T3, human LAG-3 on CHO-K1 cells (hLAG-3+ …); experiment: cell ELISA on fixed CHO-K1 hLAG-3+ cells
Protocol: After washing with PBS (BasalMedia Biology, Cat. No.: B320) once, 5% milk was added with 230 μl per well, and the microplate was incubated for 2 hours at 37° C. for blocking, and then was washed three times with PBST. After washing, each well was added with 50 μl sample (the samples were 5-fold serially diluted with an initial concentration of 10 μg/ml). The microplate was then incubated for 1 hour at 37° C. and washed 5 times with PBST. […] After washing the microplate 5 times with PBST, 50 μl/well TMB (Sunnodic, Cat. No.: TTMB-1000-01) was added to the microplate for color development. Finally, 50 μl/well of 1M H₂SO₄ was added to stop the reaction. The microplate was then read by a microplate reader (MultiskanGO Thermo, model 511919200), and the data were analyzed using Graphpad prism 5.

[6] = molecular target: T2, human LAG-3-his; experiment: Biacore T200, antibody captured on Protein A, LAG-3-his in solution
Protocol: First, Protein A (Thermo Pierce, Cat. No.: 21181) was coupled to the biosensor chip CMS (GE, Cat. No.: BR-4005-30) using pH 7.4 running buffer HBS-EP+ (10 mM HEPES, 150 mM NaCl, 3 mM EDTA, and 0.05% P20). The chip was activated with a freshly prepared 50 mM NHS (N-hydroxysuccinimide) and 200 mM EDC (1-ethyl-3-(3-dimethylaminopropyl) carbodiimide hydrochloride) followed by injection of 10 μg/ml Protein A prepared with 10 mM NaAc (pH4.0). […] The flow rate was […], binding time was 180 s, and dissociation time was 300 s, After the experiment, the chip was washed for 30 s with 10 mM Glycine-HCl (pH 1.5) at a flow rate of 30 μl/min. The experimental data were fitted with the 1:1 Langmuir model using the software of Biacore T200 evaluation version 3.0 (GE), and the value of affinity KD was obtained.

Binder	fold weaker than binding to human LAG-3 [1]	IC50 [2]	IC50 [3]	EC50 [4]	EC50 [5]	Kd [6]
humanized anti-human LAG-3 antibody Ab2317 (antibody, human IgG4 S228P, kappa, V domains shown, LG2317 / LG2343, human kappa / hIgG4) VH: QVQLVQSGAEVKKPGASVKVSCKASGYTFTDYEMHWVKQAPGQGLEWIGGIDPETEGIAYNQKFRGRATLTADKSTSTAYMELRSLRSDDTAVYYCTNSNYYGGREAWFAYWGQGTLVTVSS VL: DIQMTQSPSSLSASVGDRVTITCRASQDIGSSLNWYQQKPGKAPKRLIYATSSLDSGVPSRFSGSRSGSDFTLTISSLQPEDFATYYCLQYVTSPLTFGGGTKVEIKR	> 200 times	1640 pM	9780 pM and 28000 pM	287 pM and 579 pM and 440 pM	200 pM	168 pM
humanized antibody Ab2325 (antibody, human IgG4 S228P, kappa, V domains shown, LG2317 / LG2348, human kappa / hIgG4) VH: QVQLVQSGAEVKKPGASVKVSCKASGYTFTDYEMHWVKQAPGQGLEWMGGIDPETEGIAYNQKFRGRATMTTDTSTSTAYMELRSLRSDDTAVYYCANSNYYGGREAWFAYWGQGTLVTVSS VL: DIQMTQSPSSLSASVGDRVTITCRASQDIGSSLNWYQQKPGKAPKRLIYATSSLDSGVPSRFSGSRSGSDFTLTISSLQPEDFATYYCLQYVTSPLTFGGGTKVEIKR	> 200 times	1760 pM		312 pM	190 pM	190 pM
